# Molecular target: T1, HLA-A*02:01 (human)
# T1 construct: MHC monomers first loaded with a UV-sensitive peptide (not identified) that is cleaved by UV light and exchanged for the test peptide; captured on streptavidin plates, detected with anti-β2m; also called peptide-receptive MHC molecules; MHC class I
# Experiment: UV-ligand exchange + anti-b2m ELISA; peptide exchange yield grade (+ >=10%, ++ >=20%, +++ >=50, ++++ >=75%)
# Excerpt: Candidate peptides for T cell based therapies according to the present invention were further tested for their MHC binding capacity (affinity). The individual peptide-MHC complexes were produced by UV-ligand exchange, where a UV-sensitive peptide is cleaved upon UV-irradiation, and exchanged with the peptide of interest as analyzed. Only peptide candidates that can effectively bind and stabilize the peptide-receptive MHC molecules prevent dissociation of the MHC complexes. To determine the yield of the exchange reaction, an ELISA was performed based on the detection of the light chain (β2m) of stabilized MHC complexes. The assay was performed as generally described in Rodenko et al. (Rodenko et al., 2006).
# 96 well MAXISorp plates (NUNC) were coated over night with 2 ug/ml streptavidin in PBS at room temperature, washed 4× and blocked for 1h at 37° C. in 2% BSA containing blocking buffer. Refolded HLA-A*02:01/MLA-001 monomers served as standards, covering the range of 15-500 ng/ml. Peptide-MHC monomers of the UV-exchange reaction were diluted 100 fold in blocking buffer. Samples were incubated for 1 h at 37° C., washed four times, incubated with 2 ug/ml HRP conjugated anti-β2m for 1h at 37° C., washed again and detected with TMB solution that is stopped with […]. Absorption was measured at 450 nm. Candidate peptides that show a high exchange yield (preferably higher than 50%, most preferred higher than 75%) are generally preferred for a generation and production of antibodies or fragments thereof, and/or T cell receptors or fragments thereof, as they show sufficient avidity to the MHC molecules and prevent dissociation of the MHC complexes.
row,Binder,peptide exchange yield [%]
1,ALIVSLPYL (source gene SLC17A3; also called SLC17A3-001) [ALIVSLPYL (SEQ ID NO: 1)],50 to 75
2,KLLQNNYGL (source gene RGS5) [KLLQNNYGL (SEQ ID NO: 10)],20 to 50
3,KLQDGLLHI (source gene TIMP1) [KLQDGLLHI (SEQ ID NO: 103)],20 to 50
4,ALFEGVVRQI (source gene RRAD) [ALFEGVVRQI (SEQ ID NO: 104)],50 to 75
5,ALADLDELLIRA (source gene HSPG2) [ALADLDELLIRA (SEQ ID NO: 105)],50 to 75
6,VLMDLKALL (source gene DDX41) [VLMDLKALL (SEQ ID NO: 106)],50 to 75
7,VLMDLKALLL (source gene DDX41) [VLMDLKALLL (SEQ ID NO: 107)],50 to 75
8,VLISVLQAI (source gene CYFIP2) [VLISVLQAI (SEQ ID NO: 108)],20 to 50
9,YLWSRVEKL (source gene LRRK2) [YLWSRVEKL (SEQ ID NO: 109)],≥ 75
10,LLDLHSYLL (source gene MARCH6) [LLDLHSYLL (SEQ ID NO: 110)],20 to 50
11,TLLETEMLL (source gene CEP44) [TLLETEMLL (SEQ ID NO: 111)],20 to 50
12,LLFDHLEPIEL (source gene RASGRP3) [LLFDHLEPIEL (SEQ ID NO: 112)],50 to 75
13,FIQTEAPKEV (source gene RGS5) [FIQTEAPKEV (SEQ ID NO: 11)],20 to 50
14,SLFDWNVKL (source gene UBE2QL1) [SLFDWNVKL (SEQ ID NO: 113)],50 to 75
15,ALAVNISAA (source gene CCT6A) [ALAVNISAA (SEQ ID NO: 114)],50 to 75
16,ALDPSGNQLI (source gene SEMA5B) [ALDPSGNQLI (SEQ ID NO: 12)],20 to 50
17,KIMAQILTV (source gene LRRK2) [KIMAQILTV (SEQ ID NO: 13)],50 to 75
18,ALLTETIFL (source gene LRRK2) [ALLTETIFL (SEQ ID NO: 14)],20 to 50
19,ILIKHLVKV (source gene ARHGAP42) [ILIKHLVKV (SEQ ID NO: 15)],20 to 50
20,FMPEELPQL (source gene THNSL2) [FMPEELPQL (SEQ ID NO: 16)],20 to 50
21,ILAQQVHAL (source gene KIF12) [ILAQQVHAL (SEQ ID NO: 17)],50 to 75
22,YVLDLAAKV (source gene ACLY) [YVLDLAAKV (SEQ ID NO: 18)],50 to 75

row,Binder,peptide exchange yield [%]
1,LLDPGSLQL (source gene SYNDIG1L) [LLDPGSLQL (SEQ ID NO: 19)],20 to 50
2,ILWREVVTL (source gene HSF4) [ILWREVVTL (SEQ ID NO: 2)],50 to 75
3,AVANTTFTV (source gene HSD3B7) [AVANTTFTV (SEQ ID NO: 20)],20 to 50
4,RLIQGDQILSV (source gene INADL) [RLIQGDQILSV (SEQ ID NO: 21)],20 to 50
5,"FLSPPLPSV (source genes BCKDHA, TMEM91) [FLSPPLPSV (SEQ ID NO: 22)]",50 to 75
6,YIQEVVQYI (source gene PLCB1) [YIQEVVQYI (SEQ ID NO: 23)],50 to 75
7,FTLGTTVFL (source gene NDUFC1) [FTLGTTVFL (SEQ ID NO: 24)],50 to 75
8,LLVPAHLVAA (source gene ESM1) [LLVPAHLVAA (SEQ ID NO: 25)],20 to 50
9,SLSDLLVSL (source gene OPN3) [SLSDLLVSL (SEQ ID NO: 27)],50 to 75
10,"FIADLVVGL (source genes ENO1, ENO2, ENO3) [FIADLVVGL (SEQ ID NO: 28)]",20 to 50
11,ILLDLEQAL (source gene CUL7) [ILLDLEQAL (SEQ ID NO: 29)],50 to 75
12,QLFYTKIFL (source gene PLOD1) [QLFYTKIFL (SEQ ID NO: 30)],20 to 50
13,RLLGEVQAL (source gene HSF4) [RLLGEVQAL (SEQ ID NO: 3)],20 to 50
14,VLFGLDPAVIKV (source gene HSPA12A) [VLFGLDPAVIKV (SEQ ID NO: 31)],50 to 75
15,"FIADVVEKI (source genes HTRA1, HTRA3) [FIADVVEKI (SEQ ID NO: 33)]",20 to 50
16,ELNNQNFYL (source gene CIT) [ELNNQNFYL (SEQ ID NO: 34)],50 to 75
17,VLHSLQTQL (source gene ANGPTL4) [VLHSLQTQL (SEQ ID NO: 35)],20 to 50
18,SLFGKKYIL (source gene FHL2) [SLFGKKYIL (SEQ ID NO: 36)],20 to 50
19,VLAPVILML (source gene ABCC3) [VLAPVILML (SEQ ID NO: 37)],20 to 50
20,VLLDTILQL (source gene HSF2BP) [VLLDTILQL (SEQ ID NO: 38)],50 to 75
21,YLLNLNHLGL (source gene TRAM1) [YLLNLNHLGL (SEQ ID NO: 39)],50 to 75
22,YIQEHLLQI (source gene IVNS1ABP) [YIQEHLLQI (SEQ ID NO: 40)],50 to 75

row,Binder,peptide exchange yield [%]
1,GLLKTLQKL (source gene CLIC4) [GLLKTLQKL (SEQ ID NO: 41)],20 to 50
2,FLSQDIITV (source gene REN) [FLSQDIITV (SEQ ID NO: 4)],50 to 75
3,VILDTGTIQL (source gene NAT8) [VILDTGTIQL (SEQ ID NO: 42)],20 to 50
4,YLKDELDEL (source gene SOGA2) [YLKDELDEL (SEQ ID NO: 43)],50 to 75
5,ALFSFVTAL (source gene TTYH3) [ALFSFVTAL (SEQ ID NO: 44)],50 to 75
6,"ALLGIPLTL (source genes KCNK3, KCNK15) [ALLGIPLTL (SEQ ID NO: 45)]",50 to 75
7,GLSEVLVQI (source gene MICAL3) [GLSEVLVQI (SEQ ID NO: 46)],50 to 75
8,TLAEVRAVQEI (source gene SMYD2) [TLAEVRAVQEI (SEQ ID NO: 47)],50 to 75
9,VVASNIMEV (source gene PFKFB3) [VVASNIMEV (SEQ ID NO: 48)],20 to 50
10,VLIVEVPGV (source gene ADCY5) [VLIVEVPGV (SEQ ID NO: 49)],50 to 75
11,SLSDHIVLL (source gene ITGA3) [SLSDHIVLL (SEQ ID NO: 50)],20 to 50
12,NLWPMILTL (source gene ITGA3) [NLWPMILTL (SEQ ID NO: 51)],50 to 75
13,YLYPNLTRL (source gene SLC6A13) [YLYPNLTRL (SEQ ID NO: 5)],20 to 50
14,SILDAVQRV (source gene PXDNL) [SILDAVQRV (SEQ ID NO: 52)],20 to 50
15,FLLEIRQTL (source gene SNX13) [FLLEIRQTL (SEQ ID NO: 53)],20 to 50
16,ALVAKGLVQA (source gene AKR1A1) [ALVAKGLVQA (SEQ ID NO: 54)],20 to 50
17,YLALILPVL (source gene SLC16A4) [YLALILPVL (SEQ ID NO: 55)],20 to 50
18,ILMDFSNSM (source gene ITGB4) [ILMDFSNSM (SEQ ID NO: 56)],50 to 75
19,SLQKEILYL (source gene ATG2B) [SLQKEILYL (SEQ ID NO: 57)],20 to 50
20,FLVDFEQSHL (source gene CYP2J2) [FLVDFEQSHL (SEQ ID NO: 58)],≥ 75
21,SLKNNVVSV (source gene TGFBI) [SLKNNVVSV (SEQ ID NO: 59)],50 to 75
22,ILWKDIEYV (source gene SYT9) [ILWKDIEYV (SEQ ID NO: 60)],50 to 75

# — patent US20160287687A1 (IMMATICS BIOTECHNOLOGIES, published 2016)
